Series [1] has as its system HeLa Kyoto. In words: solubility in G1/S (NP-40 vs SDS abundance) (log2 ratio); higher = more soluble. The conditions noted are these: cell cycle stage: G1/S.
The test system of series [2] is HeLa Kyoto. In words: thermal stability score vs G1/S (z-score of summed log2 fold changes over temperatures); higher = more thermally stable than in G1/S.
The subject of series [3] is HeLa Kyoto. In words: solubility change mitosis vs G1/S (difference of NP-40 vs SDS log2 ratios) (log2 ratio difference); higher = more soluble in mitosis.
Series [4] has as its system HeLa Kyoto. In words: melting temperature (median over replicates), in situ; higher = more thermally stable.
The mark [5] stands for this setting: cell cycle stage: early G1 (4.5 h after nocodazole release).
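Throughout, for melting temperature (median over replicates), in situ: HeLa Kyoto cells synchronized by double thymidine or nocodazole block, proteins quantified by TMT10plex mass spectrometry, three independent biological replicates.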
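Throughout, for solubility change mitosis vs G1/S (difference of NP-40 vs SDS log2 ratios): synchronized HeLa Kyoto cells (double thymidine block for G1/S, nocodazole release for mitosis), protein amounts in NP-40 versus SDS lysates quantified by mass spectrometry, three biological replicates.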
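Throughout, for solubility in G1/S (NP-40 vs SDS abundance): HeLa Kyoto cells arrested at G1/S by double thymidine block, proteins quantified by TMT10plex mass spectrometry in mild NP-40 versus SDS extracts, three biological replicates.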
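Throughout, for thermal stability score vs G1/S (z-score of summed log2 fold changes over temperatures): synchronized HeLa Kyoto cells, proteins quantified by TMT10plex mass spectrometry, three biological replicates, mitosis taken 0.5 h after nocodazole release, G1/S directly after double thymidine block.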

For the sequence “MAAAVSSVVRRVEELGDLAQAHIQQLSEAAGEDDHFLIRASAALEKLKLLCGEEKECSNPSNLLELYTQAILDMTYFEENKLVDEDFPEDSSSQKVKELISFLSEPEILVKENNMHPKHCNLLGDELLECLSWRRGALLYMYCHSLTKRREWLLRKSSLLKKYLLDGISYLLQMLNYRCPIQLNEGVSFQDLDTAKLLSAGIFSDIHLLAMMYSGEMCYWGSKYCADQQPENHEVDTSVSGAGCTTYKEPLDFREVGEKILKKYVSVCEGPLKEQEWNTTNAKQILNFFHHRCN [C5ORF51]”, in the series on HeLa Kyoto [1], the “solubility in G1/S (log2)” value is 0.302. Further, the thermal stability score was 0.411 with HeLa Kyoto [2] (setting [5]) and 1.04 in the series with HeLa Kyoto [2] (cell cycle stage: mitosis). Besides, the “solubility change mitosis (log2)” value in the series on HeLa Kyoto [3] was -0.0335. The melting temperature in the series with HeLa Kyoto [4] (cell cycle stage: G1/S) was 49.5 °C; in the series with HeLa Kyoto [4] (cell cycle stage: mitosis) it was 49.9 °C.

As to “MAAAWGSSLTAATQRAVTPWPRGRLLTASLGPQARREASSSSPEAGEGQIRLTDSCVQRLLEITEGSEFLRLQVEGGGCSGFQYKFSLDTVINPDDRVFEQGGARVVVDSDSLAFVKGAQVDFSQELIRSSFQVLNNPQAQQGCSCGSSFSIKL [ISCA2]”, the “solubility in G1/S (log2)” value with HeLa Kyoto [1] amounted to 0.276. The thermal stability score was -1.26 in the series with HeLa Kyoto [2] (setting [5]) and -2.06 with HeLa Kyoto [2] (cell cycle stage: mitosis). In addition, the “solubility change mitosis (log2)” value in the series with HeLa Kyoto [3] was -0.123. For the same sequence, the melting temperature in the series on HeLa Kyoto [4] (cell cycle stage: G1/S) turned out to be 51.6 °C; with HeLa Kyoto [4] (cell cycle stage: mitosis), 53.4 °C.

Turning to “MAAAYLDPNLNHTPNSSTKTHLGTGMERSPGAMERVLKVFHYFESNSEPTTWASIIRHGDATDVRGIIQKIVDSHKVKHVACYGFRLSHLRSEEVHWLHVDMGVSSVREKYELAHPPEEWKYELRIRYLPKGFLNQFTEDKPTLNFFYQQVKSDYMLEIADQVDQEIALKLGCLEIRRSYWEMRGNALEKKSNYEVLEKDVGLKRFFPKSLLDSVKAKTLRKLIQQTFRQFANLNREESILKFFEILSPVYRFDKECFKCALGSSWIISVELAIGPEEGISYLTDKGCNPTHLADFTQVQTIQYSNSEDKDRKGMLQLKIAGAPEPLTVTAPSLTIAENMADLIDGYCRLVNGTSQSFIIRPQKEGERALPSIPKLANSEKQGMRTHAVSVSETDDYAEIIDEEDTYTMPSTRDYEIQRERIELGRCIGEGQFGDVHQGIYMSPENPALAVAIKTCKNCTSDSVREKFLQEALTMRQFDHPHIVKLIGVITENPVWIIMELCTLGELRSFLQVRKYSLDLASLILYAYQLSTALAYLESKRFVHRDIAARNVLVSSNDCVKLGDFGLSRYMEDSTYYKASKGKLPIKWMAPESINFRRFTSASDVWMFGVCMWEILMHGVKPFQGVKNNDVIGRIENGERLPMPPNCPPTLYSLMTKCWAYDPSRRPRFTELKAQLSTILEEEKAQQEERMRMESRRQATVSWDSGGSDEAPPKPSRPGYPSPRSSEGFYPSPQHMVQTNHYQVSGYPGSHGITAMAGSIYPGQASLLDQTDSWNHRPQEIAMWQPNVEDSTVLDLRGIGQVLPTHLMEERLIRQQQEMEEDQRWLEKEERFLKPDVRLSRGSIDREDGSLQGPIGNQHIYQPVGKPDPAAPPKKPPRPGAPGHLGSLASLSSPADSYNEGVKLQPQEISPPPTANLDRSNDKVYENVTGLVKAVIEMSSKIQPAPPEEYVPMVKEVGLALRTLLATVDETIPLLPASTHREIEMAQKLLNSDLGELINKMKLAQQYVMTSLQQEYKKQMLTAAHALAVDAKNLLDVIDQARLKMLGQTRPH [PTK2]”, the “solubility in G1/S (log2)” value in the series on HeLa Kyoto [1] is -0.0233. The thermal stability score in the series on HeLa Kyoto [2] (setting [5]) worked out at 0.562; in the series with HeLa Kyoto [2] (cell cycle stage: mitosis), 0.0674. Besides, the “solubility change mitosis (log2)” value with HeLa Kyoto [3] is -0.0593. In addition, the values for the melting temperature in the series with HeLa Kyoto [4] (cell cycle stage: G1/S) and in the series on HeLa Kyoto [4] (cell cycle stage: mitosis) were 53 °C and 53.2 °C, respectively.

Consider “MAACEGRRSGALGSSQSDFLTPPVGGAPWAVATTVVMYPPPPPPPHRDFISVTLSFGENYDNSKSWRRRSCWRKWKQLSRLQRNMILFLLAFLLFCGLLFYINLADHWKALAFRLEEEQKMRPEIAGLKPANPPVLPAPQKADTDPENLPEISSQKTQRHIQRGPPHLQIRPPSQDLKDGTQEEATKRQEAPVDPRPEGDPQRTVISWRGAVIEPEQGTELPSRRAEVPTKPPLPPARTQGTPVHLNYRQKGVIDVFLHAWKGYRKFAWGHDELKPVSRSFSEWFGLGLTLIDALDTMWILGLRKEFEEARKWVSKKLHFEKDVDVNLFESTIRILGGLLSAYHLSGDSLFLRKAEDFGNRLMPAFRTPSKIPYSDVNIGTGVAHPPRWTSDSTVAEVTSIQLEFRELSRLTGDKKFQEAVEKVTQHIHGLSGKKDGLVPMFINTHSGLFTHLGVFTLGARADSYYEYLLKQWIQGGKQETQLLEDYVEAIEGVRTHLLRHSEPSKLTFVGELAHGRFSAKMDHLVCFLPGTLALGVYHGLPASHMELAQELMETCYQMNRQMETGLSPEIVHFNLYPQPGRRDVEVKPADRHNLLRPETVESLFYLYRVTGDRKYQDWGWEILQSFSRFTRVPSGGYSSINNVQDPQKPEPRDKMESFFLGETLKYLFLLFSDDPNLLSLDAYVFNTEAHPLPIWTPA [MAN1B1]”, for which the “solubility in G1/S (log2)” value in the series with HeLa Kyoto [1] turned out to be 0.19. For the same sequence, the thermal stability score with HeLa Kyoto [2] (setting [5]) amounted to 0.594; with HeLa Kyoto [2] (cell cycle stage: mitosis) it was 0.346. For the same sequence, the “solubility change mitosis (log2)” value in the series on HeLa Kyoto [3] was -0.189. The melting temperature with HeLa Kyoto [4] (cell cycle stage: G1/S) worked out at 51.6 °C; with HeLa Kyoto [4] (cell cycle stage: mitosis), 52.1 °C.

With “MAACRYCCSCLRLRPLSDGPFLLPRRDRALTQLQVRALWSSAGSRAVAVDLGNRKLEISSGKLARFADGSAVVQSGDTAVMVTAVSKTKPSPSQFMPLVVDYRQKAAAAGRIPTNYLRREIGTSDKEILTSRIIDRSIRPLFPAGYFYDTQVLCNLLAVDGVNEPDVLAINGASVALSLSDIPWNGPVGAVRIGIIDGEYVVNPTRKEMSSSTLNLVVAGAPKSQIVMLEASAENILQQDFCHAIKVGVKYTQQIIQGIQQLVKETGVTKRTPQKLFTPSPEIVKYTHKLAMERLYAVFTDYEHDKVSRDEAVNKIRLDTEEQLKEKFPEADPYEIIESFNVVAKEVFRSIVLNEYKRCDGRDLTSLRNVSCEVDMFKTLHGSALFQRGQTQVLCTVTFDSLESGIKSDQVITAINGIKDKNFMLHYEFPPYATNEIGKVTGLNRRELGHGALAEKALYPVIPRDFPFTIRVTSEVLESNGSSSMASACGGSLALMDSGVPISSAVAGVAIGLVTKTDPEKGEIEDYRLLTDILGIEDYNGDMDFKIAGTNKGITALQADIKLPGIPIKIVMEAIQQASVAKKEILQIMNKTISKPRASRKENGPVVETVQVPLSKRAKFVGPGGYNLKKLQAETGVTISQVDEETFSVFAPTPSAMHEARDFITEICKDDQEQQLEFGAVYTATITEIRDTGVMVKLYPNMTAVLLHNTQLDQRKIKHPTALGLEVGQEIQVKYFGRDPADGRMRLSRKVLQSPATTVVRTLNDRSSIVMGEPISQSSSNSQ [PNPT1]”, the “solubility in G1/S (log2)” value with HeLa Kyoto [1] amounted to 0.0945. The thermal stability score in the series with HeLa Kyoto [2] (setting [5]) was found to be 0.177; in the series on HeLa Kyoto [2] (cell cycle stage: mitosis), 1.84. The “solubility change mitosis (log2)” value with HeLa Kyoto [3] was -0.154. Besides, the melting temperature with HeLa Kyoto [4] (cell cycle stage: G1/S) was 49.8 °C; in the series with HeLa Kyoto [4] (cell cycle stage: mitosis), 50 °C.

The record behind these values is the supplement of paper PMC5998384.
